Measured values published in the supplement of paper PMC10567573.
± gives the standard deviation.

Experiment: protein stability index of a GFP-peptide fusion (GPS, HEK-293T) (PSI 1-6); higher = more stable
Conditions: c terminus: a fixed tail appended
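Further: 24-mer peptide tiles fused after GFP, lentivirally expressed, FACS-sorted into six equal bins by GFP/DsRed ratio, decoded by Illumina sequencing, PSI is the read-weighted mean bin number.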

| Sequence | protein stability index (treatment: DMSO) | protein stability index (treatment: MLN4924 1 uM, 8 h) |
| --- | --- | --- |
| PNTYYEGGYFKARLKFPIDYPYSP [CDC34] | 2.32 ± 0.17 | 2.39 ± 0.21 |
| EPPPVKQELPPYNGFGLVEDSAQN [EFHC1] | 5.15 ± 0.059 | 5.15 ± 0.066 |
| LDNNASASGNATQTESGSEEVSST [C10orf62] | 5.7 ± 0.2 | 5.64 ± 0.15 |
| DYRKQLQYPNPLPVLSGAELEKAH [VPS39] | 4.5 ± 0.15 | 4.41 ± 0.12 |
| TFIVSCKFSPDGKYVVSGFDVDHG [WDR88] | 2.79 ± 0.39 | 2.81 ± 0.53 |
| AFPYQYPPPPHPYNPHPGFPELGY [DVL3] | 2.35 ± 0.31 | 2.5 ± 0.35 |
| THLENPTRYHLQQARRQQVKQYLS [TFE3] | 3.38 ± 0.17 | 3.64 ± 0.22 |
| CLAGCEGAHEQVDFKDFYPAIADL [P3H4] | 3.59 ± 0.48 | 3.68 ± 0.26 |
| LMRSQSPKAQPQTWKSGKQTMLSH [TRIM29] | 3.34 ± 0.33 | 3.6 ± 0.28 |
| RHWCMKHDELLAEHIKSLLIKNNS [INTS3] | 2.29 ± 0.12 | 2.38 ± 0.33 |
| NETRRKHETRLVEVDSGRQIEYEY [LMNB1] | 4.54 ± 0.14 | 4.57 ± 0.23 |
| PIGILTTSYCELLQNKVPLLGSST [PPTC7] | 2.63 ± 0.53 | 2.66 ± 0.47 |
| EKAAALERQLKVMASDHREALLDR [LRRC45] | 4.41 ± 0.17 | 4.49 ± 0.46 |
| LNVATFLDPRYKRLPFLSAFERQQ [ZBED1] | 2.37 ± 0.086 | 2.43 ± 0.42 |
| YMVRRYFNKPSRVPAPEAFRDPIW [MYORG] | 2.27 ± 0.25 | 2.12 ± 0.39 |
| TRRKKGKKDKDISKEKDTQNQNIT [KMT2E] | 4.75 ± 0.12 | 5.07 ± 0.1 |
| LSASKDRTMRLWNIEEIDEIPLVI [WDR88] | 2.19 ± 0.21 | 2.39 ± 0.14 |
| DGEGAGPGEQGGGKLVLSSLPKRL [ESRRA] | 4.94 ± 0.14 | 4.68 ± 0.15 |
| AIAPFQSAGSPPELQGLPELHEEC [NET1] | 4.99 ± 0.33 | 4.85 ± 0.14 |
| SNLCCFIPGKVIDEIYRVLRYVNS [FBXO28] | 2 ± 0.66 | 2.38 ± 0.26 |
| VSKTLPSTWSDPSVNISLDNLLPG [CLINT1] | 3.35 ± 0.17 | 3.56 ± 0.16 |
| SQWKDPALSQLICFCRESRYMDQW [GADD45A] | 2.19 ± 0.19 | 2.31 ± 0.23 |
| KVRSYVKRALAEGAQIWCGEGVDK [ALDH8A1] | 2.77 ± 0.098 | 2.78 ± 0.29 |

| Sequence | protein stability index (treatment: DMSO) | protein stability index (treatment: MLN4924 1 uM, 8 h) |
| --- | --- | --- |
| SSRPENIPPKEFHFRHPKRSVSLS [BNIP3L] | 4.29 ± 0.35 | 4.24 ± 0.051 |
| YESDSSNHCMLSPSSSGHLADSDT [C18orf25] | 5.18 ± 0.33 | 5.28 ± 0.21 |
| EAGAMTFHYIIEQGVCYLVLCEAA [SEC22B] | 3.08 ± 0.23 | 3.01 ± 0.33 |
| MAAAVAAAPGALGSLHAGGARLVA [AUH] | 2.8 ± 0.58 | 3.12 ± 0.39 |
| VGSLPVIVVGRLKVALEPQLWELG [LPCAT4] | 2.74 ± 0.036 | 2.88 ± 0.6 |
| FDEPFLTRNVQSVSIIDTELKVKD [TRIP13] | 4.65 ± 0.19 | 4.49 ± 0.068 |
| QEGAASKVLGRLRALSDTTEELTV [SLC2A12] | 4.46 ± 0.31 | 4.65 ± 0.37 |
| DFVMSLTFPFKILGDSGLGPWQLN [P2RY14] | 3 ± 0.56 | 3.08 ± 0.74 |
| ADIDHDQALAQAIKEAKEQHPDMS [EPB41L3] | 5.56 ± 0.17 | 5.51 ± 0.31 |
| DMVSNIELPTRIHEEVYFEPSSSK [MIA2] | 3.68 ± 0.2 | 3.88 ± 0.39 |
| KPILLQRMEGSQEVVNMAVIVPKE [WDFY2] | 3.7 ± 0.09 | 3.54 ± 0.4 |
| KATFMYEQFPELMNMLWSRMLKDN [CLINT1] | 2.28 ± 1.1 | 2.37 ± 0.4 |
| NKKHGEAEKKKPKTQIVCKHFLEA [ZC3H15] | 4.09 ± 0.32 | 4.14 ± 0.31 |
| ARLRPGLAVLGADERIFSLTRRLA [HAGHL] | 2.47 ± 0.14 | 2.78 ± 0.27 |
| TLVDEGDLYNWEVAIFGPPNTYYE [CDC34] | 2.33 ± 0.38 | 2.8 ± 0.26 |
| SRGSPVRVKREFEPASAREAPASV [USP39] | 4.47 ± 0.32 | 4.49 ± 0.35 |
| DGIPQVYYFGPCGKYNAMVLELLG [CSNK1G3] | 2.31 ± 0.58 | 2.27 ± 0.43 |
| TAPLPMPEGPEPAAPGKQPGRGHT [ELOA2] | 5.53 ± 0.15 | 5.27 ± 0.2 |
| SSVCVQGRCIHAGCDRIIGSKKKF [ADAMTS4] | 3.57 ± 0.26 | 3.22 ± 0.38 |
| GDVLHAHLDIWKSAAWMKERTSPG [SPDEF] | 2.92 ± 0.48 | 3.06 ± 0.46 |
| RMSYGGSTCHAYSNTRDRYGRSWE [RBMY1A1] | 2.62 ± 0.21 | 2.46 ± 0.099 |
| APLSGPQALMLPPGSFWGLCQVAQ [VENTX] | 2.06 ± 0.28 | 2.27 ± 0.14 |
| DNAPAVLHPRPDWEHSAPQRLPRS [PCDHGC5] | 4.72 ± 0.17 | 4.81 ± 0.17 |

| Sequence | protein stability index (treatment: DMSO) | protein stability index (treatment: MLN4924 1 uM, 8 h) |
| --- | --- | --- |
| EEVKTPEEEMRSHYVAQTGILWLL [GAGE1] | 2.11 ± 0.31 | 2.44 ± 0.49 |
| MQIEFIKQGSMNFRFIPVLFPNAK [TRAF3IP2] | 2.96 ± 0.71 | 2.45 ± 0.58 |
| IMPDGTIVTTVTTVQSRPRIDGKL [C2CD2L] | 3.31 ± 0.16 | 3.29 ± 0.39 |
| LGTDPTHVMGLYPDLLPTDYRKQL [VPS39] | 3.34 ± 0.36 | 3.42 ± 0.41 |
| INIKGISEAKADKILAEAAKLVPM [RAD51] | 2.62 ± 0.15 | 2.42 ± 0.15 |
| GPLGDQLHAQLRDLTSSSSDELSW [ELF3] | 4.04 ± 0.047 | 4.18 ± 0.29 |
| APPGSLVTKVTAVDADAGHNAWLS [PCDHGC5] | 3.848 ± 0.025 | 4 ± 0.19 |
| ETIEGAPPLWAASAAGHLDVVRSL [FEM1A] | 3.78 ± 0.16 | 3.72 ± 0.13 |
| KSTMDAISAEGFTDIDIDTLCAVL [BTBD1] | 2.21 ± 0.22 | 2.33 ± 0.3 |
| EVVNMAVIVPKEEGVISVSEDRTV [WDFY2] | 4.04 ± 0.42 | 4.22 ± 0.34 |
| KTILGNAHDNSEELERARELKEKE [ANKRD44] | 5.62 ± 0.16 | 5.51 ± 0.21 |
| MKALLGSYAHSVEDTHVQIGQVHE [FCHO1] | 3.62 ± 0.091 | 3.6 ± 0.25 |
| EERASLAGNRNSMVIHIPEEPRPS [KCNK9] | 4.82 ± 0.13 | 4.94 ± 0.38 |
| EPMWSGSTMRRMALRPTAFSGCLN [EMID1] | 2.82 ± 0.27 | 2.79 ± 0.16 |
| CVQCKMPVCYQCLEEGKHSSHEVK [TRIM9] | 4.08 ± 0.44 | 4.19 ± 0.45 |
| LSGTRESLAQGPDAATTDELSSLG [TBC1D10A] | 5.23 ± 0.34 | 4.9 ± 0.24 |
| KMDFKTNILLKNLVTIARKASLWQ [TRIM43] | 2.7 ± 0.49 | 2.62 ± 0.92 |
| NDTYRTDLCLLYPPFMIALACLHV [CCNC] | 3.07 ± 0.38 | 2.97 ± 0.23 |
| FSGSLEPVACGSVLSEGSPLTEQE [SRPK2] | 5.23 ± 0.17 | 5.46 ± 0.16 |
| SSDRSRDSSHERTESQLTPCIRNV [BTBD10] | 5.06 ± 0.065 | 5 ± 0.2 |
| DGIDPFPLLMNRQRVPKVLVENAK [EFHC1] | 3.77 ± 0.24 | 3.97 ± 0.22 |
| FNNGAHMSLLPDKKTVHYYAELGQ [PLK2] | 2.92 ± 0.34 | 2.66 ± 0.25 |
| SKVVVPPLPGKAFLRQLPFRGDDG [SNX3] | 3.45 ± 0.17 | 3.56 ± 0.21 |

| Sequence | protein stability index (treatment: DMSO) | protein stability index (treatment: MLN4924 1 uM, 8 h) |
| --- | --- | --- |
| SFQIVLDPMLDFYSDKNAKLTKES [TENT5D] | 2.91 ± 0.43 | 3.09 ± 0.37 |
| AAPAAGLCGAGSEPSIAPTSCAGN [RSPH3] | 4.55 ± 0.25 | 4.68 ± 0.26 |
| NVPLSISRLTPGGKAAQAGVAVGD [PDLIM7] | 4.05 ± 0.23 | 4.18 ± 0.13 |
| LNYTYKRFEGLTQRGSIPTYMKAG [STK38L] | 2.5 ± 0.18 | 2.67 ± 0.22 |
| LSLDNSPLLQSIHQLDFVQVKASS [TRIM9] | 2.73 ± 0.17 | 2.98 ± 0.42 |
| LSELYEESSDLQMDVMPGEGDLPQ [EID1] | 5.42 ± 0.47 | 5.12 ± 0.47 |
| DITPLMAAANGGHVKIVKLLLAHK [ANKRD17] | 2.27 ± 0.2 | 2.33 ± 0.41 |
| DDEGDSYSDNPCSCSQSHCCSRYL [SPRY1] | 4.45 ± 0.21 | 4.57 ± 0.23 |
| EGVIDSSDKEIVAEAERLDVKAMG [EIF5] | 5.34 ± 0.12 | 5.35 ± 0.15 |
| EPEQTGADAAEDEEVDVTSVDPIA [RBBP5] | 5.64 ± 0.18 | 5.55 ± 0.33 |
| PEGGMEQALAGASSGRELGRPKEL [ZNF263] | 4.92 ± 0.11 | 5.29 ± 0.17 |
| GAVFNGITLLILAELLIFSVPIVY [RTN3] | 3.33 ± 0.037 | 2.9 ± 0.39 |
| RPDTGDDAAGHGFCYCAGSHKRKR [GMCL1] | 3.81 ± 0.74 | 4.47 ± 0.55 |
| DPLRSGTVLVSVTVFDANDNAPVF [PCDHGA10] | 2.73 ± 0.42 | 2.82 ± 0.6 |
| SRGELIPISPSTEVGGSGIGTPPS [MYBL2] | 4.74 ± 0.28 | 4.8 ± 0.15 |
| LQCDAVNLAFGRRCEELEDARYKL [TEKT4] | 3.74 ± 0.26 | 3.64 ± 0.31 |
| PGESLECPAELRPQVPQPPSPAAV [TRAF3IP2] | 5.31 ± 0.077 | 5.18 ± 0.43 |
| ELNKQVVSSSEQLQSCQAEIIELR [KRT34] | 3.82 ± 0.33 | 4.04 ± 0.53 |
| EDDDCDDDDDDDAQILPSRVQGGC [DRICH1] | 5.47 ± 0.22 | 5.43 ± 0.11 |
| VLLGEPLVVMAPSPSESSETVLAL [DENND6A] | 2.82 ± 0.36 | 2.52 ± 0.34 |
